Reference: patent US20220380463A1 (Adimab, published 2022)
Changes are numbered by the printed parent chain.

T1: Cynomolgus CD3εδ Fc heterodimer (Cy CD3ε Fc / CD3δ Fc-HIS) (cynomolgus, UniProt Q95LI8 22-100)
T1 chain 1: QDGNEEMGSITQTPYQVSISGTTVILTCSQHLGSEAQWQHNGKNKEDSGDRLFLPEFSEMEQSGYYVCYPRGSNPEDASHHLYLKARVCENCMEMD
T1 chain 2: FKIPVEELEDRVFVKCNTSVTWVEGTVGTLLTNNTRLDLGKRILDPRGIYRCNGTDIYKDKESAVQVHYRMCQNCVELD

B1: SAD10319_P01_E01 (ADI-57298) (antibody, V domains shown)
VH: QVQLVQSGAEVKKPGASVKVSCKASGYTFDAYAMHWVRQAPGQRLEWMGWIDAGTGATAYSQKFQGRVTITRDTSASTAYMELSSLRSEDTAVYYCARDHYGHYFYDVWGQGTLVTVSS
VL: DIVMTQSPDSLAVSLGERATINCKSSQSLLNARTGKNYLAWYQQKPGQPPKLLIYWASTRESGVPDRFSGSGSGTDFTLTISSLQAEDVAVYYCKQSYSRRTFGGGTKVEIK
notes: IgG; also called Ab232
B2: SAD10319_P01_F02 (ADI-48624) (antibody, V domains shown)
VH: B1 VH with D30E, A31S, A33D, A57N, A59K, R72A, T74E, A76T
VL: B1 VL
notes: IgG; also called Ab241
B3: SAD10319_P02_H04 (ADI-57313) (antibody, V domains shown)
VH: B1 VH with D30T, A31S, D52N, A53P, G54D, A59K, H100A, Y101H
VL: B1 VL
notes: IgG; also called Ab254
B4: SAD10319_P04_E11 (ADI-57338) (antibody, V domains shown)
VH: B1 VH with D30T, A31D, A33N, D52N, A53P, G54Y, A57Y, A59K
VL: B1 VL
notes: IgG; also called Ab37
B5: SAD10319_P02_B06 (ADI-57321) (antibody, V domains shown)
VH: B1 VH with D30T, A31S, A33T, L45P, W50S, D52N, A57F, A59D
VL: B1 VL
notes: IgG; also called Ab9
B6: SAD10319_P01_G01 (ADI-57300) (antibody, V domains shown)
VH: QVQLVQSGAEVKKPGASVKVSCKASGYTFTSADMHWVRQAPGQRLQPMGWINAGTGATKYSQKFQGRVTITRDTSANTAYMELSSLRSEDTAVYYCARDAYGRYFYDVWGQGTLVTVSS
VL: B1 VL
notes: IgG; ADI-57300 is also printed for Ab28; also called Ab234
B7: SAD10319_P02_C04 (ADI-57309) (antibody, V domains shown)
VH: B1 VH with D30E, A31S, A33S, D52N, A53P, G54A, A59D, H100A, G102H
VL: B1 VL
notes: IgG; also called Ab250
B8: SAD10319_P04_C11 (ADI-57336) (antibody, V domains shown)
VH: B6 VH with T30H, A32Y, D33E, Q46E, P47W, A53P, G54S, A57S, N77S, V108H
VL: B1 VL
notes: IgG; also called Ab34
B9: SAD10319_P01_F01 (ADI-57299) (antibody, V domains shown)
VH: B6 VH with T30Q, A32Y, P47W, A53P, G54T, A57N, K59V, N77S
VL: B1 VL
notes: IgG; also called Ab233
B10: SAD10319_P04_B11 (ADI-57335) (antibody, V domains shown)
VH: B1 VH with D30G, A31S, A33D, A59K, H100A, Y101H
VL: B1 VL
notes: IgG; also called Ab33
B11: SAD10319_P01_H02 (ADI-48625) (antibody, V domains shown)
VH: B1 VH with D30T, A31D, D52N, A53P, G54S, A59V, H100A, G102H
VL: B1 VL
notes: IgG; also called Ab242
B12: SAD10319_P02_C05 (ADI-57315) (antibody, V domains shown)
VH: B1 VH with D30T, A31D, A33N, D52N, A53P, G54L, A57T, A59K, H100A, G102H
VL: B1 VL
notes: IgG; also called Ab257
B13: SAD10319_P04_F11 (ADI-57339) (antibody, V domains shown)
VH: B1 VH with D30T, A31D, A33N, E46Q, D52N, A53P, G54Y, A57Y, A59K
VL: B1 VL
notes: IgG; also called Ab38
B14: SAD10319_P03_E08 (ADI-48637) (antibody, V domains shown)
VH: QVQLVQSGAEVKKPGASVKVSCKASGYTFNDYAMHWVRQAPGQRLEWMGYINGTGATVYSQKFQGRVTITRDTSASTAYMELSSLRSEDTAVYYCARDAYHHYFYDVWSQGTLVTVSS
VL: B1 VL
notes: IgG; also called Ab21
B15: SAD10319_P02_B04 (ADI-57308) (antibody, V domains shown)
VH: B1 VH with D30A, A31D, D52N, A53P, A57S, A59K, H100A, V108H
VL: B1 VL
notes: IgG; also called Ab249
B16: SAD10319_P01_D03 (ADI-57306) (antibody, V domains shown)
VH: B1 VH with D30T, A31S, A33N, A59H, H100A, G102H
VL: B1 VL
notes: IgG; also called Ab245
B17: SAD10319_P03_F09 (ADI-57329) (antibody, V domains shown)
VH: B1 VH with D30P, A31S, A33P, E46D, D52N, A53P, G54D, A59V, H100A, G102H
VL: B1 VL with L29P
notes: IgG; also called Ab27
B18: SAD10319_P02_B05 (ADI-57314) (antibody, V domains shown)
VH: B1 VH with D30A, A31D, W50S, D52N, A57N, A59Y, H100A
VL: B1 VL
notes: IgG; also called Ab256
B19: SAD10319_P01_C03 (ADI-48626) (antibody, V domains shown)
VH: B1 VH with D30T, A31D, A33D, A53P, G54Y, A59K, H100A
VL: B1 VL
notes: IgG; also called Ab244
B20: SAD10319_P01_D02 (ADI-57303) (antibody, V domains shown)
VH: B1 VH with D30T, A31E, A33D, L45P, A59V, H100A, H103R, V108H
VL: B1 VL
notes: IgG; also called Ab239
B21: SAD10319_P02_A04 (ADI-57307) (antibody, V domains shown)
VH: B1 VH with A31S, A33S, D52N, A53P, G54D, A59D
VL: B1 VL
notes: IgG; also called Ab247
B22: SAD10319_P02_D06 (ADI-48631) (antibody, V domains shown)
VH: B1 VH with D30T, A31D, D52N, A59I, H100A, G102H
VL: B1 VL
notes: IgG; also called Ab11
B23: SAD10319_P02_G05 (ADI-57318) (antibody, V domains shown)
VH: B1 VH with D30T, A31Q, A33T, W50S, A59K, H100A, G102H
VL: B1 VL
notes: IgG; also called Ab6
B24: SAD10319_P01_A02 (ADI-57301) (antibody, V domains shown)
VH: B1 VH with D30T, A31E, A33E, D52N, A53P, G54L, A57N, A59K
VL: B1 VL
notes: IgG; also called Ab236
B25: SAD10319_P03_H08 (ADI-57328) (antibody, V domains shown)
VH: B6 VH with T30K, A32Y, L45P, Q46E, P47W, A57N, K59V, N77S, G102H
VL: B1 VL
notes: IgG; also called Ab23
B26: SAD10319_P03_G07 (ADI-57325) (antibody, V domains shown)
VH: B1 VH with A31S, A33L, A59N, H100A, Y101H
VL: B1 VL
notes: IgG; also called Ab18
B27: SAD10319_P02_A05 (ADI-48629) (antibody, V domains shown)
VH: B1 VH with A31S, D52N, A53P, G54N, A59T
VL: B1 VL
notes: IgG; also called Ab255
B28: SAD10319_P03_H07 (ADI-57326) (antibody, V domains shown)
VH: B1 VH with D30N, A31S, A33D, D52N, A53P, G54Y, A57E, A59K
VL: B1 VL
notes: IgG; also called Ab19
B29: SAD10319_P02_D05 (ADI-57316) (antibody, V domains shown)
VH: B1 VH with D30N, A31D, E46A, A57N, A59Y, H100A, Y101H
VL: B1 VL
notes: IgG; also called Ab258
B30: SAD10319_P04_C10 (ADI-57333) (antibody, V domains shown)
VH: B6 VH with S31D, A32Y, D33S, Q46E, P47W, W50S, A57I, N77S, Y101H
VL: B1 VL
notes: IgG; also called Ab31
B31: SAD10319_P03_G08 (ADI-48638) (antibody, V domains shown)
VH: B1 VH with D30S, A31S, A33D, A57F, A59K, H100A, V108H
VL: B1 VL
notes: IgG; also called Ab22
B32: SAD10319_P02_D04 (ADI-57310) (antibody, V domains shown)
VH: B1 VH with D30T, A31S, E46Q, A57N, A59Y, H100A, Y101H
VL: B1 VL
notes: IgG; also called Ab251
B33: SAD10319_P01_B03 (ADI-57305) (antibody, V domains shown)
VH: B1 VH with D30N, D52N, A53P, G54D, A59T, H100A, G102H
VL: B1 VL
notes: IgG; also called Ab243
B34: SAD10319_P02_G06 (ADI-48632) (antibody, V domains shown)
VH: B1 VH with D30T, A31S, D52N, A53P, G54D, A59V, H100A, G102H
VL: B1 VL
notes: IgG; also called Ab15
B35: SAD10319_P04_D11 (ADI-57337) (antibody, V domains shown)
VH: B1 VH with D30N, A31S, A33R, W50S, A57N, A59K, H100A, H103R, V108H
VL: B1 VL
notes: IgG; also called Ab35
B36: SAD10319_P03_D08 (ADI-57327) (antibody, V domains shown)
VH: B1 VH with D30Y, A31S, A33E, E46D, D52N, A53P, G54Q, A59K, H100A, G102H
VL: B1 VL
notes: IgG; also called Ab20
B37: SAD10319_P04_A10 (ADI-57331) (antibody, V domains shown)
VH: B6 VH with A32D, D33A, Q46A, P47W, W50Y, A57T, N77S, R98H, R103H
VL: B1 VL
notes: IgG; also called Ab29
B38: SAD10319_P03_G09 (ADI-57300) (antibody, V domains shown)
VH: B6 VH with A32Y, Q46E, P47W, N52D, A53P, G54H, N77S, V108H
VL: B1 VL
notes: IgG; ADI-57300 is also printed for Ab234; also called Ab28
B39: SAD10319_P02_F05 (ADI-57317) (antibody, V domains shown)
VH: B1 VH with D30N, A31N, A57N, A59D, H100A, Y101H, G102H, H103R
VL: B1 VL
notes: IgG; also called Ab5
B40: SAD10319_P02_H05 (ADI-57319) (antibody, V domains shown)
VH: B1 VH with D30T, A31Q, A33S, D52N, A57D, A59V, Y101H, H103R
VL: B1 VL with L30F
notes: IgG; also called Ab7
B41: SAD10319_P01_C02 (ADI-57302) (antibody, V domains shown)
VH: B1 VH with D30T, A31E, A33N, D52N, A53P, G54L, A57N, A59L, H100A, G102H
VL: B1 VL
notes: IgG; also called Ab238

Target: T1, Cynomolgus CD3εδ Fc heterodimer (Cy …)
Assay: BLI (Octet), IgG on AHC sensor, pH 6.0

Row | koff | Binder
1 | 0.0281 s⁻¹ | B1
2 | 0.00522 s⁻¹ | B2
3 | 0.00313 s⁻¹ | B3
4 | 0.0239 s⁻¹ | B4
5 | 0.00531 s⁻¹ | B5
6 | 0.00249 s⁻¹ | B6
7 | 0.0215 s⁻¹ | B7
8 | 0.00317 s⁻¹ | B8
9 | 0.0179 s⁻¹ | B9
10 | 0.00273 s⁻¹ | B10
11 | 0.0314 s⁻¹ | B11
12 | 0.00697 s⁻¹ | B12
13 | 0.00202 s⁻¹ | B13
14 | 0.0197 s⁻¹ | B14
15 | 0.0203 s⁻¹ | B15
16 | 0.00221 s⁻¹ | B16
17 | 0.0199 s⁻¹ | B17
18 | 0.0388 s⁻¹ | B18
19 | 0.0196 s⁻¹ | B19
20 | 0.00686 s⁻¹ | B20
21 | 0.0284 s⁻¹ | B21

Row | koff | Binder
22 | 0.0212 s⁻¹ | B22
23 | 0.00475 s⁻¹ | B23
24 | 0.0165 s⁻¹ | B24
25 | 0.00348 s⁻¹ | B25
26 | 0.0187 s⁻¹ | B26
27 | 0.0269 s⁻¹ | B27
28 | 0.0201 s⁻¹ | B28
29 | 0.00296 s⁻¹ | B29
30 | 0.00124 s⁻¹ | B30
31 | 0.0168 s⁻¹ | B31
32 | 0.00322 s⁻¹ | B32
33 | 0.0245 s⁻¹ | B33
34 | 0.0242 s⁻¹ | B34
35 | 0.00339 s⁻¹ | B35
36 | 0.02 s⁻¹ | B36
37 | 0.0262 s⁻¹ | B37
38 | 0.0219 s⁻¹ | B38
39 | 0.0262 s⁻¹ | B39
40 | 0.019 s⁻¹ | B40
41 | 0.0251 s⁻¹ | B41
